Among the data in PMC9122904, “Insights into the client protein release mechanism of the ATP-independent chaperone Spy” (Nature Communications, 2022) are kon values, retold here.

Holding throughout (test): BLI; Octet RED96; client biotinylated and loaded on streptavidin sensors; Spy or Spy variant in solution at 0.25, 0.5, 1, 1.5 and 2 μM; 40 mM HEPES, 150 mM NaCl, pH 7.5; Kd calculated as koff/kon
Common to all, as to conditions: both partners purified

The target of one assay is T1, Spy_(1-124) (UniProt P77754 24-147).
T1 construct: source: E. coli BL21 (DE3), purified (Ni-NTA, cation exchange, SEC); not shown: His6, N-terminal, cleaved; SUMO, N-terminal, cleaved
T1 sequence (looked up): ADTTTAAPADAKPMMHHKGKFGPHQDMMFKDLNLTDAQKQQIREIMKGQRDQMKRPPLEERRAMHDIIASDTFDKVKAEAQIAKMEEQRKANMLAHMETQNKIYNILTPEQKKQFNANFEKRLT
The procedure, abridged: (§1)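 Association was recorded with an Octet RED96 as streptavidin sensors carrying client proteins, biotinylated with EZ-link NHS-biotin at a 1:1 molar ratio, sat in 40 mM HEPES, 150 mM NaCl, pH 7.5 with 0.25 to 2 μM of the analyte protein (0.25, 0.5, 1, 1.5 and 2 μM). Dissociation followed after transfer to analyte-free buffer. Both wavelength-shift phases were fitted in SigmaPlot 12.0 to obtain koff and the observed association rate, whose dependence on analyte concentration yielded kon, with Kd defined as koff divided by kon.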

A further assay has as its target T2, Spy_(21-130) (UniProt P77754 44-153).
T2 construct: Spy chaperone, residues 21-130; source: E. coli BL21 (DE3), purified (Ni-NTA, cation exchange, SEC); not shown: His6, N-terminal, cleaved; SUMO, N-terminal, cleaved
T2 sequence (looked up): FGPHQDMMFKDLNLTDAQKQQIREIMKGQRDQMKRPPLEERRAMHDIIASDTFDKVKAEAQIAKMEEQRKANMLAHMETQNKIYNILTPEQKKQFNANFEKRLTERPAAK
In outline: as §1

The target of a further assay is T3, Spy_(29-138) (UniProt P77754 52-161).
T3 construct: source: E. coli BL21 (DE3), purified (Ni-NTA, cation exchange, SEC); not shown: His6, N-terminal, cleaved; SUMO, N-terminal, cleaved
T3 sequence (looked up): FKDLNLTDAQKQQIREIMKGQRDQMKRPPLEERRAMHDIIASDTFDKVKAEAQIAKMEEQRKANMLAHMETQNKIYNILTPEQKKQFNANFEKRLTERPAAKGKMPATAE
The procedure, abridged:
as §1

The next assay deals with T4, Spy_(21-127) (UniProt P77754 44-150).
T4 construct: Spy chaperone, residues 21-127; source: E. coli BL21 (DE3), purified (Ni-NTA, cation exchange, SEC); not shown: His6, N-terminal, cleaved; SUMO, N-terminal, cleaved
T4 sequence (looked up): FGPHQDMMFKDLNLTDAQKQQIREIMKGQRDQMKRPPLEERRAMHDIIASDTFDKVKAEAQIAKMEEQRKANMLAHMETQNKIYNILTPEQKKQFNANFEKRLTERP
In outline: as §1

For another assay, the target named is T5, Spy_(27-124) (UniProt P77754 50-147).
T5 construct: source: E. coli BL21 (DE3), purified (Ni-NTA, cation exchange, SEC); not shown: His6, N-terminal, cleaved; SUMO, N-terminal, cleaved
T5 sequence (looked up): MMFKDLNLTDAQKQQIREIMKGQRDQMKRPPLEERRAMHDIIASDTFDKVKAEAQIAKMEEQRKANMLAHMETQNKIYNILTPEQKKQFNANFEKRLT
In outline:
as §1

The target in the next assay is T6, Spy_(27-130) (UniProt P77754 50-153).
T6 construct: Spy chaperone, residues 27-130; source: E. coli BL21 (DE3), purified (Ni-NTA, cation exchange, SEC); not shown: His6, N-terminal, cleaved; SUMO, N-terminal, cleaved
T6 sequence (looked up): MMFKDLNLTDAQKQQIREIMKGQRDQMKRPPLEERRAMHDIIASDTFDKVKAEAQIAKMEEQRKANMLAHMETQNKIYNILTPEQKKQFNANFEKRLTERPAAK
The procedure, abridged: as §1

The target in a further assay is T7, Spy_(29-124) (UniProt P77754 52-147).
T7 construct: also called termini-free Spy; source: E. coli BL21 (DE3), purified (Ni-NTA, cation exchange, SEC); not shown: His6, N-terminal, cleaved; SUMO, N-terminal, cleaved
T7 sequence (looked up): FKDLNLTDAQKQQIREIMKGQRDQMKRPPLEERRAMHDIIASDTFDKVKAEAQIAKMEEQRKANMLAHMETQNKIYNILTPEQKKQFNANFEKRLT
The procedure, abridged: as §1

The target of the next assay is T8, Spy_(29-124) R61D R62D (UniProt P77754 52-147, R61D | R62D).
T8 construct: source: E. coli BL21 (DE3), purified (Ni-NTA, cation exchange, SEC); not shown: His6, N-terminal, cleaved; SUMO, N-terminal, cleaved
T8 sequence (looked up): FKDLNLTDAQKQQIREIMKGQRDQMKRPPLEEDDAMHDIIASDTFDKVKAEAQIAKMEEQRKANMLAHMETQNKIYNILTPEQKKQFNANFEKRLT

B1: Im7 H40W L53A I54A (natural protein)
chain: MELKNSISDYTEAEFVQLLKEIEKENVAATDDVLDVLLEWFVKITEHPDGTDAAYYPSDNRDDSPEGIVKEIKEWRAANGKPGFKQG
modifications: biotin (EZ-link NHS-biotin, 1:1 molar ratio of biotin to protein)
notes: Im7 (colicin E7 immunity protein) with H40W L53A I54A; Spy was made with an N-terminal His6-SUMO tag that was cleaved; also called Im7AAW; partially folded client; source: purified by a similar procedure to Spy
As to B1, the kon was 203000 M⁻¹ s⁻¹ with Spy_(1-124); 187000 M⁻¹ s⁻¹ with Spy_(21-130); 286000 M⁻¹ s⁻¹ with Spy_(29-138); 258000 M⁻¹ s⁻¹ in the assay with Spy_(21-127); 314000 M⁻¹ s⁻¹ with Spy_(27-124); 313000 M⁻¹ s⁻¹ with Spy_(27-130). The kon with Spy_(29-124) was 273000 M⁻¹ s⁻¹; with Spy_(29-124) R61D R62D, 74000 M⁻¹ s⁻¹.

In general, kon refers to a measure of how fast the partners come together.
